Laboratory results reported in patent US20260167693A1 (ANGELES THERAPEUTICS, published 2026).

B1: CD8SP-CD19-hu-mROO5-vL-[hTCRb-KACIAH]-F-P2A-SP-CD19-hu-mROO5-vH-[hTCRa-CSDVP]-F-F2A-PAC (other)
TCR beta: DIQMTQSPSSLSASVGDRVTITCKASDHINNWLAWYQQKPGQAPKLLIYGATTLETGVPSRFSGSGSGTDYTLTISSLQPEDFATYYCQQSWNTPWTFGQGTKLEIKREDLKNVFPPEVAVFEPSKAEIAHTQKATLVCLATGFYPDHVELSWWVNGKEVHSGVCTDPQPLKEQPALNDSRYCLSSRLRVSATFWQNPRNHFRCQVQFYGLSENDEWTQDRAKPVTQIVSAEAWGRADCGITSASYHQGVLSATILYEILLGKATLYAVLVSALVLMAMVKRKDSRG
TCR alpha: QVQLQQPGAELVKPGASVKMSCKASGYAFSSYWINWMKQKPGQGLEWIGQIYPGDGDTNYNGKFKGRATLTADTSSSTAYMQLSSLTSEDSAVYFCARSITTVVGCAMDYWGQGTSVTVSSIQNPDPAVYQLRDSKSSDKSVCLFTDFDSQTNVSQSKDSDVYITDKCVLDMRSMDFKSNSAVAWSNKSDFACANAFNNSIIPEDTFFPSSDVPCDVKLVEKSFETDTNLNFQNLSVIGFRILLLKVAGFNLLMTLRLWSS
B2: CD8SP-CD19-hu-mROO5-vL-[hTCRa-CSDVP]-F-F2A-SP-CD19-hu-mROO5-vH-[hTCRb-KACIAH]-F-P2A-PAC (other)
TCR alpha: DIQMTQSPSSLSASVGDRVTITCKASDHINNWLAWYQQKPGQAPKLLIYGATTLETGVPSRFSGSGSGTDYTLTISSLQPEDFATYYCQQSWNTPWTFGQGTKLEIKRIQNPDPAVYQLRDSKSSDKSVCLFTDFDSQTNVSQSKDSDVYITDKCVLDMRSMDFKSNSAVAWSNKSDFACANAFNNSIIPEDTFFPSSDVPCDVKLVEKSFETDTNLNFQNLSVIGFRILLLKVAGFNLLMTLRLWSS
TCR beta: QVQLQQPGAELVKPGASVKMSCKASGYAFSSYWINWMKQKPGQGLEWIGQIYPGDGDTNYNGKFKGRATLTADTSSSTAYMQLSSLTSEDSAVYFCARSITTVVGCAMDYWGQGTSVTVSSEDLKNVFPPEVAVFEPSKAEIAHTQKATLVCLATGFYPDHVELSWWVNGKEVHSGVCTDPQPLKEQPALNDSRYCLSSRLRVSATFWQNPRNHFRCQVQFYGLSENDEWTQDRAKPVTQIVSAEAWGRADCGITSASYHQGVLSATILYEILLGKATLYAVLVSALVLMAMVKRKDSRG
B3: CD8SP-pre-TCRa-del48-F-F2A-CD8SP-CD19-hu-mRO05-1-scFv-V5-[hTCRb-S57C-opt]-F-P2A-Pac (other)
chain: TPFPSLAPPIMLLVDGKQQMVVVCLVLDVAPPGLDSPIWFSAGNGSALDAFTYGPSPATDGTWTNLAHLSLPSEELASWEPLVCHTGPGAEGHSRSTQPMHLSGEASTARTCPQEPLRGTPGGALWLGVLRLLLFKLLLFDLLLTCSCLCDPAGPLPSPATTTRLRALGSHRLHPATETGGREATSSPRPQPRDRRWGDTPPGRKPGSPV
TCR beta: DIQMTQSPSSLSASVGDRVTITCKASDHINNWLAWYQQKPGQAPKLLIYGATTLETGVPSRFSGSGSGTDYTLTISSLQPEDFATYYCQQSWNTPWTFGQGTKLEIKRGGGGSGGGGSGGGGSQVQLQQPGAELVKPGASVKMSCKASGYAFSSYWINWMKQKPGQGLEWIGQIYPGDGDTNYNGKFKGRATLTADTSSSTAYMQLSSLTSEDSAVYFCARSITTVVGCAMDYWGQGTSVTVSSGKPIPNPLLGLDSTGSGEDLKNVFPPEVAVFEPSEAEISHTQKATLVCLATGFYPDHVELSWWVNGKEVHSGVCTDPQPLKEQPALNDSRYCLSSRLRVSATFWQNPRNHFRCQVQFYGLSENDEWTQDRAKPVTQIVSAEAWGRADCGFTSESYQQGVLSATILYEILLGKATLYAVLVSALVLMAMVKRKDSRG
B4: CD8SP-V5-[hTCRb-KACIAH]-F-P2A-CD8SP-CD19-hu-mROO5-vL-Gly-Ser-Linker-CD19-hu-mROO5-vH-Myc-[hTCRa-CSDVP]-F-F2A-PAC (other)
TCR beta: GKPIPNPLLGLDSTGSGEDLKNVFPPEVAVFEPSKAEIAHTQKATLVCLATGFYPDHVELSWWVNGKEVHSGVCTDPQPLKEQPALNDSRYCLSSRLRVSATFWQNPRNHFRCQVQFYGLSENDEWTQDRAKPVTQIVSAEAWGRADCGITSASYHQGVLSATILYEILLGKATLYAVLVSALVLMAMVKRKDSRG
TCR alpha: DIQMTQSPSSLSASVGDRVTITCKASDHINNWLAWYQQKPGQAPKLLIYGATTLETGVPSRFSGSGSGTDYTLTISSLQPEDFATYYCQQSWNTPWTFGQGTKLEIKRGGGGSGGGGSGGGGSQVQLQQPGAELVKPGASVKMSCKASGYAFSSYWINWMKQKPGQGLEWIGQIYPGDGDTNYNGKFKGRATLTADTSSSTAYMQLSSLTSEDSAVYFCARSITTVVGCAMDYWGQGTSVTVSSEQKLISEEDGSGIQNPDPAVYQLRDSKSSDKSVCLFTDFDSQTNVSQSKDSDVYITDKCVLDMRSMDFKSNSAVAWSNKSDFACANAFNNSIIPEDTFFPSSDVPCDVKLVEKSFETDTNLNFQNLSVIGFRILLLKVAGFNLLMTLRLWSS
B5: CD8SP-V5-[hTCRb-KACIAH]-F-P2A-CD8SP-hCD19-EUK5-13-vL-Gly-Ser-Linker-hCD19-EUK5-13-vH-Myc-[hTCRa-CSDVP]-F-F2A-PAC (other)
TCR beta: GKPIPNPLLGLDSTGSGEDLKNVFPPEVAVFEPSKAEIAHTQKATLVCLATGFYPDHVELSWWVNGKEVHSGVCTDPQPLKEQPALNDSRYCLSSRLRVSATFWQNPRNHFRCQVQFYGLSENDEWTQDRAKPVTQIVSAEAWGRADCGITSASYHQGVLSATILYEILLGKATLYAVLVSALVLMAMVKRKDSRG
TCR alpha: LPVLTQPPSVSVAPGKTARITCGGNNIGSKSVHWYQQKPGQAPVLVVYDDSDRPSGIPERFSGSNSGNTATLTISRVEAGDEADYYCQVWDSSSDYVVFGGGTKLTVLGGGGSGGGGSGGGGSEVQLVQSGAEVKKPGESLKISCKGSGYSFTSYWIGWVRQMPGKGLEWMGIIYPGDSDTRYSPSFQGQVTISADKSISTAYLQWSSLKASDTAMYYCARQVWGWQGGMYPRSNWWYNLDSWGQGTLVTVSSEQKLISEEDGSGIQNPDPAVYQLRDSKSSDKSVCLFTDFDSQTNVSQSKDSDVYITDKCVLDMRSMDFKSNSAVAWSNKSDFACANAFNNSIIPEDTFFPSSDVPCDVKLVEKSFETDTNLNFQNLSVIGFRILLLKVAGFNLLMTLRLWSS
B6: CD8SP-CD19-MOR0028-vL-Myc2-[hTCRb-KACIAH]-F-P2A-SP-CD19-MOR0028-vH-Myc4-[hTCRa-CSDVP]-F-F2A-PAC (other)
TCR beta: DIVMTQSPATLSLSPGERATLSCRSSKSLQNVNGNTYLYWFQQKPGQSPQLLIYRMSNLNSGVPDRFSGSGSGTEFTLTISSLEPEDFAVYYCMQHLEYPITFGAGTKLEIKEQKLISEEDLGSGEDLKNVFPPEVAVFEPSKAEIAHTQKATLVCLATGFYPDHVELSWWVNGKEVHSGVCTDPQPLKEQPALNDSRYCLSSRLRVSATFWQNPRNHFRCQVQFYGLSENDEWTQDRAKPVTQIVSAEAWGRADCGITSASYHQGVLSATILYEILLGKATLYAVLVSALVLMAMVKRKDSRG
TCR alpha: EVQLVESGGGLVKPGGSLKLSCAASGYTFTSYVMHWVRQAPGKGLEWIGYINPYNDGTKYNEKFQGRVTISSDKSISTAYMELSSLRSEDTAMYYCARGTYYYGTRVFDYWGQGTLVTVSSEQKLISEEDLGSGIQNPDPAVYQLRDSKSSDKSVCLFTDFDSQTNVSQSKDSDVYITDKCVLDMRSMDFKSNSAVAWSNKSDFACANAFNNSIIPEDTFFPSSDVPCDVKLVEKSFETDTNLNFQNLSVIGFRILLLKVAGFNLLMTLRLWSS
notes: also called 022817-L08
B7: CD8SP-CD19Bu12-vL-V5-[hTCRb-WT]-F-P2A-CD19Bu12-vH-Myc-[hTCRa-WT]-F-F2A-PAC (other)
TCR beta: EIVLTQSPATLSLSPGERATLSCSASSSVSYMHWYQQKPGQAPRLLIYDTSKLASGIPARFSGSGSGTDFTLTISSLEPEDVAVYYCFQGSVYPFTFGQGTKLEIKRGKPIPNPLLGLDSTGSGEDLKNVFPPEVAVFEPSEAEISHTQKATLVCLATGFYPDHVELSWWVNGKEVHSGVSTDPQPLKEQPALNDSRYCLSSRLRVSATFWQNPRNHFRCQVQFYGLSENDEWTQDRAKPVTQIVSAEAWGRADCGFTSESYQQGVLSATILYEILLGKATLYAVLVSALVLMAMVKRKDSRG
TCR alpha: QVQLQESGPGLVKPSQTLSLTCTVSGGSISTSGMGVGWIRQHPGKGLEWIGHIWWDDDKRYNPALKSRVTISVDTSKNQFSLKLSSVTAADTAVYYCARMELWSYYFDYWGQGTLVTVSSEQKLISEEDGSGIQNPDPAVYQLRDSKSSDKSVCLFTDFDSQTNVSQSKDSDVYITDKTVLDMRSMDFKSNSAVAWSNKSDFACANAFNNSIIPEDTFFPSPESSCDVKLVEKSFETDTNLNFQNLSVIGFRILLLKVAGFNLLMTLRLWSS
B8: CD8SP-FMC63-vL-EAAAK-[hTCRb-KACIAH]-F-P2A-SP-FMC63-vH-EAAAK-v2-[hTCRa-CSDVP]-F-F2A-PAC (other)
TCR beta: DIQMTQTTSSLSASLGDRVTISCRASQDISKYLNWYQQKPDGTVKLLIYHTSRLHSGVPSRFSGSGSGTDYSLTISNLEQEDIATYFCQQGNTLPYTFGGGTKLEITEAAAKEDLKNVFPPEVAVFEPSKAEIAHTQKATLVCLATGFYPDHVELSWWVNGKEVHSGVCTDPQPLKEQPALNDSRYCLSSRLRVSATFWQNPRNHFRCQVQFYGLSENDEWTQDRAKPVTQIVSAEAWGRADCGITSASYHQGVLSATILYEILLGKATLYAVLVSALVLMAMVKRKDSRG
TCR alpha: EVKLQESGPGLVAPSQSLSVTCTVSGVSLPDYGVSWIRQPPRKGLEWLGVIWGSETTYYNSALKSRLTIIKDNSKSQVFLKMNSLQTDDTAIYYCAKHYYYGGSYAMDYWGQGTSVTVSSEAAAKIQNPDPAVYQLRDSKSSDKSVCLFTDFDSQTNVSQSKDSDVYITDKCVLDMRSMDFKSNSAVAWSNKSDFACANAFNNSIIPEDTFFPSSDVPCDVKLVEKSFETDTNLNFQNLSVIGFRILLLKVAGFNLLMTLRLWSS
notes: Polyprotein PRT 12435; also called 040617-C09

Biological target: T1, human CD19 (human, UniProt P15391 20-556)
T1 sequence (looked up): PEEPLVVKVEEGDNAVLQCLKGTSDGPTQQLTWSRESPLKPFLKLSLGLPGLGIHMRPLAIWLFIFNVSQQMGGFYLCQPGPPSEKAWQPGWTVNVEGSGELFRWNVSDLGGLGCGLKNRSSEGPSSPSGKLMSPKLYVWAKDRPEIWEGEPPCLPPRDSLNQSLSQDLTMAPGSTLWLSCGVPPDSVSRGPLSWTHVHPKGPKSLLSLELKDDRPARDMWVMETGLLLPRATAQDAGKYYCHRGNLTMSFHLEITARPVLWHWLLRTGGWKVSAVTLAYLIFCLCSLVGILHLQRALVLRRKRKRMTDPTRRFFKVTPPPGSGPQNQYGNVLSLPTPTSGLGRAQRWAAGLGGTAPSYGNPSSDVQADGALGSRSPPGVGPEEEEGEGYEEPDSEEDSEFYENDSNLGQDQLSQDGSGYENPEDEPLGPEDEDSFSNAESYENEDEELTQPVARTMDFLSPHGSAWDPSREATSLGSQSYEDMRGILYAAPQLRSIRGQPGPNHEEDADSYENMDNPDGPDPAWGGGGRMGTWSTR
Assay: cell-based or functional assay

Going from B1 to B2, the “NFAT-GFP (%) after overnight co-culture with RAJI cells” value (from here on “NFAT-GFP (%)”) falls from 71.8% to 52.4%.

First: B3
Second: B4
The “NFAT-GFP (%)” value of the first is lower: 6.77% for the first, 9.55% for the second.

First: B5
Second: B6
The “NFAT-GFP (%)” value of the first is lower: 6.67% for the first, 31.6% for the second.

For B7, the “NFAT-GFP (%)” value was 4.49%.

Biological target: T2, CD19-ECD-GGSG-NLuc-AcV5 (human)
T2 construct: also called CD19-GGSG-NLuc-AcV5; Flag-CD19-GGSG-NLuc-AcV5
T2 chain: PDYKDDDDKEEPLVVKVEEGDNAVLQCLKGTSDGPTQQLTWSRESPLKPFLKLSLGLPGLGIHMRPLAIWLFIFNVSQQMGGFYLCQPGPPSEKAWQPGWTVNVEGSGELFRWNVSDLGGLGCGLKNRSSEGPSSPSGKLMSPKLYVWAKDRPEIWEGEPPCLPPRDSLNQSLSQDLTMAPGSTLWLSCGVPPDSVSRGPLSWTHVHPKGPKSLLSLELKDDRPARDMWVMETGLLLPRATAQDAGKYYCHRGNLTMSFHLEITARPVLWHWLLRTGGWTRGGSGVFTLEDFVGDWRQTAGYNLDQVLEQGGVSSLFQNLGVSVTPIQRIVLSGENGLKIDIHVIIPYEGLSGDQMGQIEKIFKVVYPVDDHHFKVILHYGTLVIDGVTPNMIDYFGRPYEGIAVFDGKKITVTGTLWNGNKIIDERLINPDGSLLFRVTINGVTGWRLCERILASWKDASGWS
Assay: NLuc binding assay, SIR on Jurkat-NFAT-GFP cells

With B8 the “CD19-GGSG-NLuc (RLU)” value was 68500 RLU.
